The text below walks through data of the RNAGym collection of RNA variant scans (doi:10.7554/elife.90254).

B1: LINE1-full (parent)
chain: UACGUAGGUGGUUUUCCCCUGAUAGUGCUAAGGGGGCCUGGAAGUUUGGACUGGGCAGAGCUCAACACAGCGUGGCAAAGUGGCUGUGGCUAGACUGCCUCUCUGGAUUCCUCGUCACUCAGCAGGGCAUCUCUGAGAGAAAUGCC

Variants of B1 are the subject of the data set. Put plainly: self-cleavage, relative activity (ratio to wild type); higher = more cleavage; in vitro, sequencing; the parent is a self-cleaving ribozyme.
For G10A A67U, the self-cleavage came to 0.07.

Regarding U12A A50G, the self-cleavage worked out at 1.45.

For U12A A50C, the self-cleavage came to 0.57.

As to U9C G106A, the self-cleavage is 1.71.

G11A A141U: the self-cleavage came to 1.05.

Turning to U9C G41A, the self-cleavage came out at 1.06.

For the variant G10A A138G, the self-cleavage turned out to be 1.2.

U12C U47A: the self-cleavage is 0.71.

Turning to U12C U47G, the self-cleavage amounted to 1.21.

As for U12C A30U, the self-cleavage worked out at 0.53.

As to U12C A30G, the self-cleavage is 0.87.

As for G10A A50U, the self-cleavage is 1.32.

For U9C U46C, the self-cleavage was 1.08.

Consider U9C U46A, for which the self-cleavage worked out at 1.18.

As for U12A A65C, the self-cleavage turned out to be 0.14.

As for U12A A65G, the self-cleavage was found to be 0.21.

With U9C U115A, the self-cleavage turned out to be 1.55.

Regarding U9C U115C, the self-cleavage worked out at 1.29.

Take G10C C146U: the self-cleavage came out at 1.91.

On to G11A A142G, for which the self-cleavage was determined as 1.23.

Regarding U12A G35C, the self-cleavage stood at 1.52.

Consider U12A G35A, for which the self-cleavage amounted to 0.98.

With G10A U104C, the self-cleavage came to 0.37.

As to G10A U52C, the self-cleavage was found to be 0.62.

Take G10A U85C: the self-cleavage came out at 0.09.

As to U9C U102A, the self-cleavage was 1.11.

As for U9C U102C, the self-cleavage turned out to be 1.3.

With U12C A117U, the self-cleavage amounted to 1.28.

As for U12C A136G, the self-cleavage came to 1.41.

On to U12C A92U, for which the self-cleavage came to 0.56.

As for U12C A92G, the self-cleavage was 0.09.

On to U12C A92C, for which the self-cleavage worked out at 0.81.

With G11U A79U, the self-cleavage came to 1.75.

As for U9C U134A, the self-cleavage stood at 1.19.

On to U9C U134G, for which the self-cleavage stood at 0.63.

As to U9C G126U, the self-cleavage was 1.68.

Consider U12C G36A, for which the self-cleavage is 1.04.

Take U9G U52G: the self-cleavage amounted to 1.05.

Regarding U9G A43G, the self-cleavage turned out to be 0.85.

Turning to U12C G88A, the self-cleavage is 0.1.

For U12C U46C, the self-cleavage worked out at 1.62.

With G11A U52G, the self-cleavage stood at 1.56.

Take G10A A136U: the self-cleavage was found to be 0.95.

As for U12A U46C, the self-cleavage was 1.31.

For U9G A141U, the self-cleavage worked out at 0.52.

Consider U9G A141G, for which the self-cleavage was found to be 1.51.

Consider U12A U39C, for which the self-cleavage is 1.17.

With U12C A43C, the self-cleavage is 1.45.

Regarding U12C A43G, the self-cleavage was 1.33.

As to G10A A77G, the self-cleavage worked out at 1.31.

Turning to U9G U96A, the self-cleavage was found to be 0.

In the case of U12C U119C, the self-cleavage was found to be 1.64.

Consider U12C U119G, for which the self-cleavage is 1.5.

Regarding G11A U13C, the self-cleavage stood at 0.51.

Turning to U12C G25A, the self-cleavage was determined as 1.18.

Consider U12A A79G, for which the self-cleavage is 1.13.

As for G11C A57G, the self-cleavage turned out to be 0.71.

For U12A U81A, the self-cleavage came to 1.89.

As for G10C, the self-cleavage came out at 0.79.

Turning to G10A, the self-cleavage came to 1.11.

As for G10U, the self-cleavage amounted to 1.26.

For U9C U62A, the self-cleavage came out at 0.14.

As for U9C G97A, the self-cleavage is 0.33.

With U12C C68U, the self-cleavage was determined as 0.35.

Regarding G11A A77U, the self-cleavage came out at 1.58.

For the variant U12A A140U, the self-cleavage came to 1.09.

As to U12A A140G, the self-cleavage was 1.51.

Turning to U12C G54A, the self-cleavage was 0.62.

In the case of U12C A94U, the self-cleavage worked out at 0.38.

Consider U12C G72U, for which the self-cleavage was 1.13.

Take U9G G60A: the self-cleavage turned out to be 0.09.

In the case of G10A C133U, the self-cleavage was determined as 1.31.

Regarding U9G A79G, the self-cleavage came out at 0.63.

G11C U20C: the self-cleavage stood at 1.53.

Consider U9G A64C, for which the self-cleavage amounted to 0.18.

As for U9G A64U, the self-cleavage amounted to 0.53.

As to U12C U13A, the self-cleavage amounted to 0.27.

With U12C U13C, the self-cleavage came to 1.2.

For U12C A24G, the self-cleavage was 1.13.

Take U9G A140G: the self-cleavage worked out at 0.

With U12A U108C, the self-cleavage came to 1.28.

With U12C G49U, the self-cleavage is 1.35.

As to U12A U109A, the self-cleavage turned out to be 0.65.

Take U12C G86A: the self-cleavage is 0.14.

On to U12A U47C, for which the self-cleavage was 1.17.

As to U12A U47A, the self-cleavage worked out at 0.67.

Consider U9C U87C, for which the self-cleavage was found to be 0.42.

In the case of U9C U87A, the self-cleavage turned out to be 0.2.

As for U9C U87G, the self-cleavage amounted to 0.69.

Take U12C A142C: the self-cleavage turned out to be 1.38.

Consider U12C A142U, for which the self-cleavage came out at 0.91.

Turning to G10A C95A, the self-cleavage was 0.03.

For U9C U14A, the self-cleavage was found to be 1.17.

On to U9C U14G, for which the self-cleavage came to 2.09.

Take G11U U134G: the self-cleavage was found to be 1.07.

With G11A G60A, the self-cleavage is 0.01.

On to U9G U47A, for which the self-cleavage worked out at 0.99.

In the case of U12C G139A, the self-cleavage was 0.94.

On to U12A C98U, for which the self-cleavage is 0.41.

For U12C G82A, the self-cleavage worked out at 1.68.

In the case of U9G U108C, the self-cleavage was found to be 1.37.

For U12A C113U, the self-cleavage amounted to 1.36.

Turning to G11U U130C, the self-cleavage amounted to 1.

In the case of U9C U26C, the self-cleavage was determined as 1.35.

With U9G A124C, the self-cleavage turned out to be 0.

As to U12C U26G, the self-cleavage was found to be 0.58.

Consider U12C A59U, for which the self-cleavage came out at 0.13.

On to U12C U134A, for which the self-cleavage was 1.22.

Regarding U12C A140U, the self-cleavage came out at 1.24.

With U12C A140G, the self-cleavage came to 1.2.

U9C G93A: the self-cleavage amounted to 0.05.

Regarding U12C C98U, the self-cleavage was 0.26.

For the variant G10A U81A, the self-cleavage was found to be 2.3.

U12C C146G: the self-cleavage was 1.03.

U12C A64U: the self-cleavage was 1.53.

Turning to U12C A64C, the self-cleavage was determined as 0.7.

For U12C C133A, the self-cleavage was determined as 1.67.

For U9C U96C, the self-cleavage was 0.14.

As for U9C U96A, the self-cleavage turned out to be 0.15.

For the variant U12C G58A, the self-cleavage was 0.09.

For the variant U9G A22G, the self-cleavage stood at 0.93.

Regarding U12C C19A, the self-cleavage turned out to be 0.85.

For U12C C18G, the self-cleavage came to 2.1.

As for U12C C18U, the self-cleavage was 1.28.

On to G10C U73C, for which the self-cleavage amounted to 1.64.

In the case of U9C G125A, the self-cleavage stood at 1.8.

As to G11A U46C, the self-cleavage came to 0.94.

Consider U9G U102A, for which the self-cleavage came to 1.44.

Turning to U12C G75A, the self-cleavage was 1.46.

As for U9G U130A, the self-cleavage worked out at 0.78.

Take U9G U130C: the self-cleavage was 1.79.

With U12C U20C, the self-cleavage came out at 1.24.

For the variant U12C A65G, the self-cleavage worked out at 0.15.

As to G10U U104C, the self-cleavage came to 2.42.

Turning to U12C U112C, the self-cleavage came to 1.26.

Regarding G11A U108C, the self-cleavage is 1.58.

U12C A22G: the self-cleavage worked out at 1.64.

U12C C90U: the self-cleavage was 0.04.

In the case of U9C G48C, the self-cleavage came out at 1.09.

G10C U13C: the self-cleavage is 0.94.

In the case of U12C U130A, the self-cleavage came to 1.49.

On to G10A A121G, for which the self-cleavage came out at 1.37.

Consider U12A U13C, for which the self-cleavage stood at 1.58.

Consider U12C G27A, for which the self-cleavage stood at 0.87.

With U12A G32C, the self-cleavage was 0.8.

Consider U12A G32A, for which the self-cleavage worked out at 1.08.

Regarding U12C A124G, the self-cleavage was 1.23.

As for U12C U109C, the self-cleavage was 1.48.

For G10A U14C, the self-cleavage came out at 1.45.

As to G10A A22U, the self-cleavage came out at 1.55.

Take G10A A22C: the self-cleavage worked out at 1.54.

On to G10A A22G, for which the self-cleavage amounted to 1.09.

Turning to G10A A124U, the self-cleavage amounted to 2.3.

As for U9C U23C, the self-cleavage was 1.68.

For U12A U15A, the self-cleavage worked out at 0.95.

In the case of U12A U15C, the self-cleavage is 0.92.

Consider U12C U23C, for which the self-cleavage was 1.34.

For the variant U12A G137U, the self-cleavage is 1.05.

Turning to U12A U26C, the self-cleavage is 1.22.

For U12C U108C, the self-cleavage amounted to 1.66.

Consider U12C U108A, for which the self-cleavage came to 1.25.

As to G11A C95A, the self-cleavage stood at 0.06.

Consider G11A C63A, for which the self-cleavage worked out at 0.01.

As to U12C A67G, the self-cleavage is 0.77.

For U12C A67C, the self-cleavage is 0.09.

With U12C A67U, the self-cleavage was determined as 0.21.

Take U9C U85G: the self-cleavage amounted to 0.27.
